Data taken from the DeepSol protein solubility set.

Experiment: soluble on expression in E. coli; label from the status in PepcDB or PDB records

Soluble on expression in E. coli, soluble:
NLVNFHRMIKLTTGKEAALSYGFYGCHCGVGGRGSPKDATDRCCVTHDCCYKRLEKRGCGTKFLSYKFSNSGSRITCAKQDSCRSQLCECDKAAATCFARNKTTYNKKYQYYSNKHCRGSTPRC

Soluble on expression in E. coli, not soluble:
MDITITLDRSEQADYIYQQIYQKLKKEILSRNLLPHSKVPSKRELAENLKVSVNSVNSAYQQLLAEGYLYAIERKGFFVEELDMFSAEEHPPFALPDDLKEIHIDQSDWISFSHMSSDTDHFPIKSWFRCEQKAASRSYRTLGDMSHPQGIYEVRAAITRLISLTRGVKCRPEQMIIGAGTQVLMQLLTELLPKEAVYAMEEPGYRRMYQLLKNAGKQVKTIMLDEKGMSIAEITRQQPDVLVTTPSHQFPSGTIMPVSRRIQLLNWAAEEPRRYIIEDDYDSEFTYDVDSIPALQSLDRFQNVIYMGTFSKSLLPGLRISYMVLPPELLRAYKQRGYDLQTCSSLTQLTLQEFIESGEYQKHIKKMKQHYKEKRERLITALEAEFSGEVTVKGANAGLHFVTEFDTRRTEQDILSHAAGLQLEIFGMSRFNLKENKRQTGRPALIIGFARLKEEDIQEGVQRLFKAVYGHKKIPVTGD
MAHHHHHHMEISSISETDKNAITRLLSSDLSRTVARHAIIVLHYFRTISDEDLPIDVLLGGCVLYAVKQRQASNANYFLRECLERVKESDIVGFELLLVQVVRHNVLLIETCLRSVFHEVLLENPVAGLDRERTIKVCLHLISFLYRTSWCLFPESAARGAFLVASEKCEIKLGKLSSAFDGPMVKHIAKYLRDQFWN
MNQPIGIADSSRPKTNVRLTISANNLMDLDVFSKSDPICLIYEKTSGRKATTTEEITVPTWKDKQWTERGRTEVVMNNLNPQFTKTFLLPYFFEETQLLRFEIYDADSPTVGQDLSSHDFLGRFECVLAQIVSYSTLKAHLGKTGQIGAQWRNKDKNTKTGSITIYAEEDEKAEKIQFDVCGEGLDKKDFFGKSDPYLNFKRKFDDGSTHLIHRTEVKPKTLDPRWATVQINTQTLCAKDGDRPIIIECYDHDKWKKGEEPRGDAKFSRDDLIGTAQTTLNELLRGSSDAVEILLTNEKKKAKKGDKYKCSGTLKIWNSRIVIEPTFLDFISGGTQLDFAVAVDFTASNGPPKSSSSLHFMSADRPNQYELALRSVLSICQHYNSSKTFEAFGFGAKLPNQSSVSAIFPLDLQRGTSEVVGITGVMTAYRHALSNVQLYGPTNFAPIIENVARKAQNMIHDSARYQILLIITDGIISDMHATIRSIISASGLPLSIIIIGVGNEDFEKMHELDSDDALLQQDSRIAQRDIVQFVTMREFLNNGQGLYLDPDVIQENLAREVLYEVPAQLTGYMKQRGFQPRPVDDPWRRDSPPPEFDPILDGTGRRAPMLQAPPAGFQYPVYADTSIASAPPMY
VIDALRNNNDYEPYNKDSNNQAFNSEEITRFFSIGKYTYPSIFSELNFIINAREAFVSIQTSTIPKTAYAAVNFVETQGEDESYTDSLSTDNKRDIYADFAVIEIPLFLTNHRDYQVFNEFIKPAIETYKQLGNSSFEKKQLDQHKNDNFYMLGYPLVESSIDALILNQRRQYNNSYTEKYTPQTLTKDQRTIDLSREVPTLIQNKTENSTGSQLLVNQSLSSTSEGIIE
MGSDKIHHHHHHMPENDFFAGIDAQLDTWEFRTLADAFKPRPPLQYAITGLFTLPSLTIVFGAPGTLKSMLLGSAALHVAGGLPWLGRKVKAFPTMWLDMDNGKRRTDERFEALARHLGLNEGTPFFYISMPTPMFNAGDTGDTEAMVNRMISRGIKLLFIDNLGLISPGADENSDAMVKVMGNLRLLAERTDAAVVIIHHQRKKSKQTQTARTGETLRGHSSIEASLDLALLVEREFDSDIITVHSTKTRDTEVRPFAAEWRYEHKPGTDELETAGFVSAEGENSSETVLEKAIIETVSSNALINQTKLKDDVMKLTGIGRNQVINMIRALEVRKALNVKPGSNNEKLYYIE
MDKLNKITVPASQKLRQLQKMVHDIKNNEGGIMNKIKKLKVKAPPSVPRRDYASESPADEEQQWSDDFDSDYENPDEHSDSEMYVMPAEENADDSYEPPPVEQETRPVHPALPFARGEYIDNRSSQRHSPPFSKTLPSKPSWPSEKARLTSTLPALTALQKPQVPPKPKGLLEDEADYVVPVEDNDENYIHPTESSSPPPEKAPMVNRSTKPNSSTPASPPGTASGRNSGAWETKSPPPAAPSPLPRAGKKPTTPLKTTPVASQQNASSVCEEKPIPAERHRGSSHRQEAVQSPVFPPAQKQIHQKPIPLPRFTEGGNPTVDGPLPSFSSNSTISEQEAGVLCKPWYAGACDRKSAEEALHRSNKDGSFLIRKSSGHDSKQPYTLVVFFNKRVYNIPVRFIEATKQYALGRKKNGEEYFGSVAEIIRNHQHSPLVLIDSQNNTKDSTRLKYAVKVS
